Measured values as given in the nanobody polyreactivity screen of Harvey et al. (2022).

assay: yeast display, Sf9 membrane polyspecificity reagent, FACS + sequencing; frameworks hold sequencing errors
How it was run: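 Nanobodies came from a synthetic yeast display library in Saccharomyces cerevisiae BJ5465, induced with galactose for 36–48 hours and stained for 1 hour at 4 °C with 10% biotinylated, detergent-solubilized Sf9 membrane reagent. Cells were enriched on streptavidin microbeads and then FACS-sorted, with low and high (top ~1%) gates set on anti-HA fluorescence for expression and streptavidin fluorescence for reagent binding. Each polyreactivity label reflects the gate a clone came from. Genes were amplified by colony PCR, sequenced by MiSeq 2 × 250 and filtered by CDR length.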

Sequence	polyreactivity (PSR sort gate)
QFQHVESGGGLVQARGSRRLSCAASGRTLYRNAMGWYRPARGKERELVAAITSGGHTKYADSVKGRFTISRDNAKNTVYLQMNSLKPVDTAVYYCNARYIRYSVGFLYTRYDYCGQGTQVTVSS	high polyreactivity
QFQIVESGGGLVQAGGSLRLSCAASGSTFRTNAMGWYRQAPGKERELVARIRYSVGSTYYADSVKGRFTISRDNAKNTVYLQMNSLKPEDTAVYYCAAENQRVGTFREHDSWGQGTQVTVSS	low polyreactivity
QFQLEESGGGLVQAGGSLRLSCDASGIIINYYAMGWYRQAPGKERELVAAIRISDTTYYADSVKGRFTISRDNAKNTVYLQMNSLKPEDTAVYYCNTLYYYYYGEVYVRDYDYWGQGTHVTVSS	low polyreactivity
QFQLLESGGGLVHAGGSLLLSCAASGSTFVRYAMGWYRQAPAKERELVASISSSGSTYYADSVKGRFTISRDNAKNSDYLQMNSLKPEDTSVYYCAIQYGGRYGYWGQGTQVTVSS	low polyreactivity
QFQLLESGGGLVQAGGSLRLSCAASGSIFRSNTMGWSRQAPGKAREFVAAISRRGSRTYADSVKGRFTISRDNAKNTVYLQMNSRKPEDTAVYYCAAERGYQAHPGQGDYWGQGTQVTVSA	high polyreactivity
QFQLLESGGGVVHAAGSLRLSCAASGLIFPIYAMGWYRQAPGKERELVAVISSSGGSTNYADSVKGRFTISRDNAKNTVYLQMNSLKPEDTAVYYCAARYLQGRYDYWGQGTQVTVSS	high polyreactivity
QFQLVDSGGGLVQAGGSLRLSCAASGLIFFYYAMGWYRQAPGKERELVAAIRTNYADSVKGRFTISRDNAKNTVYLQMNSLKPEDTAVYYCAAESSQTPTSAFDYWGQGTQVTVSS	low polyreactivity
QFQLVDSGGGLVQAGGSLRLSCAPSGRIFQIYAMGWYRQAPGKERELVAAISGSTSYADSVKGRFTISRDNAKNTVYLQMISLKPEDTAVYYCAARALLPYGEYWGQGSQVTVSS	low polyreactivity
QFQLVESCRGLVQAGGSLRLSCAASGFTFRANGMGWYRQAPGKERELVATITSGGTTNYADSVKGRFTISRDNAKNTVYLQMNSLKREDTAVYYCAKRFGPAYFRLYDYWGQGTQVTVSS	low polyreactivity
QFQLVESGGCLVQAGGSLRLSCAASGFTFGYNAMGWYRQAPGKERELVAVITQSGGRTYYADSVKGRFTISRDNAKYTVYVQMNSLKPEDTAVYYCADRYRLPPYYYWGQGSQVTVSS	high polyreactivity
QFQLVESGGGFVQAGGSLRLSCAASGRIFKTYMGWYRQAPGKESELVAGITRGGGSTYYADSVKGRFTISRDNAKNTVYLQMNSLKPEDTAVYYCAADAWSSYLDRPFDYWGQGTQVTVSS	high polyreactivity
QFQLVESGGGFVQAGGSLRLSCAASGSIFLYNDMGWYRQAPGKERELVPAITSDGSTNYADSVKGRFTISRDNAKNTFYLQMNSLKPEDTAVYYCAADALWFYLNWYYGGTAYGYWGQGTQVTVSS	low polyreactivity
QFQLVESGGGIVQAGGSHRVICAASASTFARNAMGWYRQATGKESEFVATISSSGGRTYYADSVKGRFTISRDNAKNTVYLQMNSLKPEDTAVYYCAADYHIVWYEEYSWGQGTQVTVSS	high polyreactivity
QFQLVESGGGLDQAGGSLRLSCAASGSTSRKYTMGWYRQAPGTDRELVATISWSGGSTNYADSVKGRFTISRDNAKNTVYLQMNSLKPEDTAVYYCNAYVSPRYRGSRYYYWGQGTQVTVSS	high polyreactivity
QFQLVESGGGLFQAGGSLRLSCAAYGRISLRNGMGWYRQAPGKERELVAAISRGGSTYYADSVKGRFTISRDNAKNTVYLQMNSLKPEDTAVYYCNADIRPIYGDDDYWGQSTQVTVSS	low polyreactivity
QFQLVESGGGLVQAGGSHRLSCAASGFIFYYYAMGSYRQAPGKERELVAVLTESGSSTYYADSVKGRFTFSRDNAKNTVYLQMNSLKPVDTAVYYCNADFWPYTGKYDYWGQGTQVTVSS	low polyreactivity
QFQLVESGGGLVQAGGSLLLSCAASGTFGVYAMGWYRQAPGKERELVAVITDSGGTNYADSVKGRFTISRDNAKNTVFLQMNSLKPEDTAVYYCNTDAGDYYGENYWGQGTQVTVSS	low polyreactivity
QFQLVESGGGLVQAGGSLRISCAASGITLRRNAMGWYRQAPGKEREWVAAISWSGGRTYYADSVKGRFTISRDNAKNTVYLQMNSLKPEDTAVYYCAARGYPLTAFDYWGQGTQVTVSS	high polyreactivity
QFQLVESGGGLVQAGGSLRISCAASGRIFYRYAMGWYRPAPGKERELVASIRFSVGSTYYADSVKGRFTISRDNAKNTVYLQMNSLKPEDTAVYYCAADYTKYYRRYYYWGQGTQVTVSS	high polyreactivity
QFQLVESGGGLVQAGGSLRLSCAASAGYALGGYRQAPGKERELVAVINYSGGSTYYADSVKGRFTISRDNAKNTVYLQMNSLKPEDTAVYYCAAVYRRRYYWGQGTQVTVSS	high polyreactivity
QFQLVESGGGLVQAGGSLRLSCAASGFIFFNYAMGWYRQAPGKERELVASINWSTGSTYADSVKGRFTISRDNAKNTVYLQMNSLKPEDSAVYYCNTDHRRVAIPGGYWGQGTQVTVSS	low polyreactivity
QFQLVESGGGLVQAGGSLRLSCAASGFTFAYYAMGWYRQAPGKERELVAAITYSGGSTYYADSVKGRFTISRDNAKNTVYLQMNSLKPEDTAVYDCAAYPSRRRRGDEDDYWGQGTQVTVSS	high polyreactivity

Sequence	polyreactivity (PSR sort gate)
QFQLVESGGGLVQAGGSLRLSCAASGFTFEANAMGWYRKAPGKERELVASITRSDGSTHYADSVKGRFTISRDNAKNTVYLLMNRLKPEDTAVYYCAAVPESLTPKKGYGYWGKGTQVTVSS	low polyreactivity
QFQLVESGGGLVQAGGSLRLSCAASGFTFRKYAMGWYRQAPGKERELVAAIRSTGRSNYADSVKGRFTISRDNAKNTVYFQMNSLKPVDTAVYYFNVDLTYYYYEVDYWGQGTQVTVSS	high polyreactivity
QFQLVESGGGLVQAGGSLRLSCAASGFTFSHNTMGWYIQSPGKEREFVARISGRGVSTSYADSVKGRFTISRDNAKNTVYLQMNCLKPEDTAVYYCNRRVAYLSGYSYDYWGQGTQVTVSS	high polyreactivity
QFQLVESGGGLVQAGGSLRLSCAASGFTFYLYAMGWYRQAPGKERELVAAIRGSGGSTYYADSVKGRFTISRDTAKNSVYLQMNSLKPEDTEVYYCAADYKVSASWYYAYTFYYWGQGTQVTVSS	low polyreactivity
QFQLVESGGGLVQAGGSLRLSCAASGGIFTDYTMGWYRQAPGKERELVAAITWTGGSTYYADSVKGRFTISRDNAKNTVYLQMNILKPEDTAVYYCAADDYWVNLDYWGQGTQVTVSS	low polyreactivity
QFQLVESGGGLVQAGGSLRLSCAASGGTFDPYAMGLYRQAPGKERELVAAINYGGGSTYYADSVKGRFTISRDNAKNTVYLQMNSLKPEDTAVYYCAADGGRLTTSQLAQWEYDYWGQGTQVTVSS	low polyreactivity
QFQLVESGGGLVQAGGSLRLSCAASGIIFGRYTKGWYRDAPGKETELVAAITSSGITYYADSVKGRFTISRDNAKNTVYLQMNSLKPEDTAVYYCAADVGYWGRSRGYPSDDYDYWGQGTQVTVSS	low polyreactivity
QFQLVESGGGLVQAGGSLRLSCAASGIILRGYAMGWYRQAPGKERELVASISRGGSTNYADSVKGRFTISRDNAKNTVYLQMNSLKPEDTAVYYSNARIWYYGRYQGAYRFDYWGQGTQVTVSS	high polyreactivity
QFQLVESGGGLVQAGGSLRLSCAASGINFGRNTMGMYRQAPGKERELVAAIDSGGNTYADSVKGRFTISRDNAKNTVYLQMNSLKPEDTAVYFCAVDGGEFSSYGYWGQGTQVTVSS	low polyreactivity
QFQLVESGGGLVQAGGSLRLSCAASGITFSFYAIVWYRQATGKERELVAAINGRGGRTYYADSVKGRFTISRDKAKNTFYLQMNSLKTEDTAVYFCAAVVWRTDYDYWGQGTQVTVSS	low polyreactivity
QFQLVESGGGLVQAGGSLRLSCAASGLIFTANAMGWYRQAPGKERELVASITWSGDSTYYADSVKGRFTISRDNAKNTVYLQMNSLKPEDSAVYYCNARPVYTYVTYDGNYWGQGTQVTVSS	low polyreactivity
QFQLVESGGGLVQAGGSLRLSCAASGRIFNGNAMGLYRQAPGKERELVAASTSDGSTYADSVKGRFTISRDNAKNTVYLQMNSLKPEDTAVYYCNRDGYTNSRGYEFYYWGQGTQVTVSS	low polyreactivity
QFQLVESGGGLVQAGGSLRLSCAASGRIFRRYTMGWYRQAPGKERELVATITWDGVSTYYADSVKGRFTISRDNAKNTVYLQMNSLKPEDTAVYYCNVDVYYYVLSYQYDYWGQGTQVTVSS	high polyreactivity
QFQLVESGGGLVQAGGSLRLSCAASGRIFVQYAMGWYRQATGKQTEFVAAISYRGGSTYYADSVKGRFTISRDNSKITVYLPMNSLKPEDTAVYYCAIVFPYRGKVTLDYWVQGTQVTVSS	low polyreactivity
QFQLVESGGGLVQAGGSLRLSCAASGRIFVRYAMGLYRKAPGKERELVAAISKSGGSTYYADSVKGRFTISRDNAKNTVYLQMNSLKPEDTAVYYCNALVRRRPGYIRYDYWGQGTQVTVSS	low polyreactivity
QFQLVESGGGLVQAGGSLRLSCAASGRIFVRYAMGWYRQAPGKERELVAGITWSGGSTYYADSVKGRFTISRDNSKNTVYLQMNSLKPEDTAVYYCAAERRFYTSYKSKMESCGQGTQVTVSS	high polyreactivity
QFQLVESGGGLVQAGGSLRLSCAASGRIFVYNAMGLYRQAPGKEREFVATITSSGGRTYYADSVKGRFTISRDNAKNTVYLQLNSLKPEDTAVYYWAARPQNNGRNPLYRYNYWGQGTQVTVSS	high polyreactivity
QFQLVESGGGLVQAGGSLRLSCAASGRIIAFYARGWYRQAPGKERELVAAITSGSSTNYADSVKGRFTISRDNAKNTVYLQMNSLKPEDTAVYYCAAEGLRKGDRTDWKLYEYWGQGTQVTVSS	high polyreactivity
QFQLVESGGGLVQAGGSLRLSCAASGRTFGSNVRGWYRQAPGKERELVAAISVSGGSTYYADSVKGRFTISRDNAKNTVYLQMNSLKPDDTAVYYCAADYPTLGYTQNDYWGQGTQVTVSS	low polyreactivity
QFQLVESGGGLVQAGGSLRLSCAASGRTFIVYAMGWYRQAPGKERELVAGITLGSTNYADSVKGRFTISRDNAKNTVYLQMNSLKPEDTAVYYCAARSSRRGPISEGDYWGQGTQVTVSS	high polyreactivity
QFQLVESGGGLVQAGGSLRLSCAASGRTFKKYAMGWYRQAPGKESELVAAITFSGGSTYYADSVKGRFTISRDNANNTVYLQMNSLKPEDTAVYYCAAKRLGGSYGSDYWGQGTQVTVSS	high polyreactivity
